# Measured values published in paper PMC9843451.
# Experiments:
# Assay in all cases: purified protein
# Format in all cases: biochemical, Rhodopseudomonas palustris
# [1] = substrate: O=C1CCc2ccccc2O1; settings: 50 mM Tris pH 8, 150 mM NaCl, 1 mM CaCl2, DMSO, error is 95% CI
# [2] = substrate: CCCCCCC1CCC(=O)O1; settings: 2.5 mM bicine pH 8.3, 150 mM NaCl, 1 mM CaCl2, DMSO, error is 95% CI
# [3] = substrate: O=C1CCCCO1; settings: 2.5 mM bicine pH 8.3, 150 mM NaCl, 1 mM CaCl2, DMSO, error is 95% CI
protein,measurement,setting,value
Rpa3624 (Rhodopseudomonas palustris CGA009) (protein) MSNVRVLATDLAFPEGPVVMPDGSVVLVEIRAQQLTRVWPDGRKEVVAKVPGGPNGAALGPDGKMYICNNGGFGWFPSRGTMMPGAPAPHEYIGGSIQRVDLQSGEVETLFDKCGEHPLKGPNDLVFDKHGGLWFTDLGKRRARDMDVGAAYYIKPGMTEITEQVFGTLPLNGIGLSPDEATMYAAETPTGRLWAFDLSGPGEVKPRDVIYRGEKGKPICGLGGYQMFDSLAVEASGNVCVATLVSGCISVIAPDGTLVEQVPTGDRVTTNIAFGGPDLKTAYITLSGKGELIAMDWSRPGLPLNFLNK,Km,[1],1.85 (0.976–3.77) mM
same,kcat,[1],308 s⁻¹
same,kcat/Km,[1],166000 M⁻¹ s⁻¹
same,Km,[2],2.36 (1.15–4.82) mM
same,kcat,[2],135 s⁻¹
same,kcat/Km,[2],57200 M⁻¹ s⁻¹
same,Km,[3],74.0 (40.7–133) mM
same,kcat,[3],754 s⁻¹
same,kcat/Km,[3],10200 M⁻¹ s⁻¹
